Data taken from patent US7387779B2, “Anti-angiogenic proteins and fragments and methods of use thereof” (Beth Israel Deaconess Medical Center, priority 1998, dated 2008).

Experiments:
FLIP = FLIP protein levels in HUVEC; assay type: cell-based, human; settings: one hour after treatment, persisting up to 24 hours
Procedure: FLIP Protein Levels. HUVEC cells were treated as for the ERK assay, supra, and harvested at 0, 1, 3, 6, and 24 hours. FLIP protein levels in serum treated HUVEC cells and serum+Canstatin-treated HUVEC cells were quantified using anti-FLIP antibody (Sata, M. et al., 1998, J. Biol. Chem. 273:33103-6) and normalized for protein loading using levels of vinculin and plotted as a percentage of the 0 hour time points.

ERK = ERK activation (phospho-ERK western blot) in HUVEC; assay type: cell-based, human; settings: 20 μg/ml
Procedure: In order to further understand the molecular mechanisms involved in Canstatin's anti-proliferative and anti-migratory activities, the effect of Canstatin on ERK (Extracellular signal-Regulated Kinase) activation induced by 20% fetal bovine serum and endothelial mitogens was assessed. HUVEC cells were cultured overnight in McCoy's medium supplemented with 20% FBS, 1% penicillin/streptomycin, 100 μg/ml heparin and 50 μg/ml endothelial mitogen (Biomedical Technologies, Inc., Cambridge, Mass., USA). The following day, cells were washed and grown for 4 hours in low serum medium (McCoy's medium supplemented with 1% penicillin/streptomycin, 100 μg/ml heparin and 5% FBS). After 4 hours, the medium was replaced with fresh low serum medium with or without 20 μg/ml Canstatin. One hour later the serum concentration was adjusted to 20% and endothelial mitogen was added to a final concentration of 50 μg/ml. At 0, 5, 10, 25, and 40 minutes, the cells were washed with PBS and lysed with passive lysis mix (Promega, Madison, Wis., USA) plus leupeptin, PMSF, NaF, Na3VO4, β-glycerophosphate, and sodium pyrophosphate. Lysates were quantified for protein concentration and separated on 12% SDS-PAGE gels. Western blots of phospho-ERK were made for serum-treated and serum+Canstatin-treated HUVECs using anti-phospho-ERK antibodies (New England Biolabs, Beverly, Mass., USA). […]

[1] = test system: CD31-positive tumor vasculature; experiment: CD31 immunohistochemistry of xenograft tumors; settings: mouse, in vivo
Procedure: Mice from the tumor studies were sacrificed after 10-20 days of treatment. Tumours were excised and fixed in 4% paraformaldehyde. Tissues were paraffin embedded and 3 μm sections were cut and mounted on glass slides. Sections were deparaffinized, rehydrated and treated with […] protease XXIV (SIGMA Chemical Co., St. Louis, Mo., USA) at 37° C. for 5 minutes. Digestion was stopped with 100% ethanol and sections were air dried and blocked with 10% rabbit serum. […]
CD31 immunostaining was used to determine the intra-tumoral microvessel density (MVD) in frozen histological sections of the PC-3 tumor xenografts, using a rat anti-mouse […] monoclonal antibody (PharMingen, San Diego, Calif., USA) with a standard streptavidin-biotin-peroxidase detection system (Vectastain ABC Elite Kit, Vector Labs, Burlingame, Calif., USA). […] MVD was assessed by scanning the tumor at low power magnification, then identifying three areas at the tumor periphery which contained the maximum number of discrete microvessels, and then counting individual microvessels on a 40× field. The mean microvessel density was compared among treatment groups and analyzed using the Student's t-test.

HEK 293 cells = experiment: Annexin V-FITC apoptosis assay; assay type: cell-based, human; settings: 15 μg/ml
Procedure: (§1) Annexin V-FITC Labeling. In order to establish apoptosis as the potential mode of action for Canstatin, Annexin V-FITC was used to label externalized phosphatidylserine (PS), to assess apoptotic cells. 0.5×10^6 C-PAE cells, PC-3, 786-O and HEK 293 cells were added to each well of a 6 well tissue culture plate in 10% FBS supplemented DMEM (BioWhittaker, Walkersville, Md., USA) overnight. The next day, fresh medium was added to all wells together with 40 ng/ml TNF-α (positive control) or 15 μg/ml Canstatin. Control cells received an equal volume of PBS. After 24 hours of treatment, medium containing detached cells was collected and attached cells were trypsinized and combined with detached cells and centrifuged at 3,000×g. Cells were then washed and phosphatidyl-serine externalization (an early apoptotic indicator) was measured by labeling with FITC-labeled annexin V (Clontech, Palo Alto, Calif., USA) according to the manufacturer's instructions. Annexin V-FITC-labeled cells were counted using a FAC Star Plus flow cytometer (Becton-Dickenson, Waltham, Mass., USA). For each treatment 15,000 cells were counted and stored in listmode.

786-O cells = experiment: Annexin V-FITC apoptosis assay; assay type: cell-based, human; settings: 15 μg/ml
Procedure: as §1

WM-164 cells = experiment: MTT cell viability assay; assay type: cell-based, human
Text: The MTT assay was used to evaluate cell viability in C-PAE endothelial cells and WM-164 melanoma cells after treatment with Tumstatin, Tum-1, Tum-2, Tum-3 and Tum-4. The results are shown in FIGS. 34A and 34B, which are a pair of graphs showing the effect of increasing concentration (x-axis) of Tumstatin, Tum-1, Tum-2, Tum-3 and Tum-4 on the cell viability (y-axis) of C-PAE cells (FIG. 34A) and WM-164 cells (FIG. 34B). Each point represents the mean ±the standard error of the mean for triplicate wells.

Row | Molecule | FLIP protein levels (FLIP) | effect on ERK activation (ERK) | CD31 staining of tumor vasculature, treated vs control [1] | apoptosis of HEK 293 cells (HEK 293 cells) | apoptosis of 786-O cells (786-O cells) | effect on viability of WM-164 melanoma cells (WM-164 cells)
1 | Canstatin: NC1 domain of the α2 chain of Type IV collagen (SEQ ID NO:6) (protein, listed as Homo sapiens) VSIGYLLVKHSQTDQEPMCPVGMNKLWSGYSLLYFEGQEKAHNQDLGLAGSCLARFSTMPFLYCNPGDVCYYASRNDKSYWLSTTAPLPMMPVAEDEIKPYISRCSVCEAPAIAIAVHSQDVSIPHCPAGWRSLWIGYSFLMHTAAGDEGGGQSLVSPGSCLEDFRATPFIECNGGRGTCHYYANKYSFWLTTIPEQSFQGSPSADTLKAGLIRTHISRCQVCMKNL | decrease in FLIP protein levels | did not alter early activation of ERK | decrease in CD31-positive vasculature | no significant effect | no significant effect | 
2 | Tum-4: residues 181 to 244 of Tumstatin (SEQ ID NO:25) (protein, Tum-4 (amino acids 181-244 of SEQ ID NO10)) EFRASPFLECHGRGTCNYYSNSYSFWLASLNPERMFRKPIPSTVKAGELEKIISRCQVCMKKRH |  |  |  |  |  | decreased the viability
